Ends that are not written are not given here.
What was measured:
Experiment in all cases: cell-based or functional assay
[1] = target: human natriuretic peptide receptor B (NPR-B) (human) (UniProt P20594)
[2] = target: T1, purified insulin degrading enzyme (IDE) (UniProt P14735)
T1 sequence (looked up): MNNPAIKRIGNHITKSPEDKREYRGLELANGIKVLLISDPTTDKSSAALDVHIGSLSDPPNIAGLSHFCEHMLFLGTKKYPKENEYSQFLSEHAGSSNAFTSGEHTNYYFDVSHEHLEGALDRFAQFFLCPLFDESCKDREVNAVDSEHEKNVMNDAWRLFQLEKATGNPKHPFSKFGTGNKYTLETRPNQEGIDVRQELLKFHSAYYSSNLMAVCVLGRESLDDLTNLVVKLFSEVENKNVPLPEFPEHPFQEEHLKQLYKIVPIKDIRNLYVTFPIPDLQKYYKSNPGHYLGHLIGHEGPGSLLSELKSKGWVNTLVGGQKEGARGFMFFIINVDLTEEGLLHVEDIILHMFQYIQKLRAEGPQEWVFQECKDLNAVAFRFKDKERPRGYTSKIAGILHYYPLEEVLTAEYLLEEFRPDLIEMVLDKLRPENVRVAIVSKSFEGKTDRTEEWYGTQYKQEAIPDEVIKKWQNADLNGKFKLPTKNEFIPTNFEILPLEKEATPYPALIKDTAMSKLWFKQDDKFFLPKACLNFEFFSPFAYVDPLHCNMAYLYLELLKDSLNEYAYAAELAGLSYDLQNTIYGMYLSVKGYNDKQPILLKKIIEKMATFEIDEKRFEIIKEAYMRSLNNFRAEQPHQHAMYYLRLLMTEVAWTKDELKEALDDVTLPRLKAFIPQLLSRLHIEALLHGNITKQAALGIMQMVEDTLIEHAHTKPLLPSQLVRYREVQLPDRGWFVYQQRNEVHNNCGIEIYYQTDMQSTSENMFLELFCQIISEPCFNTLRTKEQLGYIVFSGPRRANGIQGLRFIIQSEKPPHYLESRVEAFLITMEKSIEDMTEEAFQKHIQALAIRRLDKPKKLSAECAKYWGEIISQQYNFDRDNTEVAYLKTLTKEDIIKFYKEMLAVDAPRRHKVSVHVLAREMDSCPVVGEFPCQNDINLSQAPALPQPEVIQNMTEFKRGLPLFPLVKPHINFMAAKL

[3] = target: purified neutral endopeptidase (NEP) (UniProt P08473)
purified neutral endopeptidase (NEP), sequence (P08473 52-750 limits assumed): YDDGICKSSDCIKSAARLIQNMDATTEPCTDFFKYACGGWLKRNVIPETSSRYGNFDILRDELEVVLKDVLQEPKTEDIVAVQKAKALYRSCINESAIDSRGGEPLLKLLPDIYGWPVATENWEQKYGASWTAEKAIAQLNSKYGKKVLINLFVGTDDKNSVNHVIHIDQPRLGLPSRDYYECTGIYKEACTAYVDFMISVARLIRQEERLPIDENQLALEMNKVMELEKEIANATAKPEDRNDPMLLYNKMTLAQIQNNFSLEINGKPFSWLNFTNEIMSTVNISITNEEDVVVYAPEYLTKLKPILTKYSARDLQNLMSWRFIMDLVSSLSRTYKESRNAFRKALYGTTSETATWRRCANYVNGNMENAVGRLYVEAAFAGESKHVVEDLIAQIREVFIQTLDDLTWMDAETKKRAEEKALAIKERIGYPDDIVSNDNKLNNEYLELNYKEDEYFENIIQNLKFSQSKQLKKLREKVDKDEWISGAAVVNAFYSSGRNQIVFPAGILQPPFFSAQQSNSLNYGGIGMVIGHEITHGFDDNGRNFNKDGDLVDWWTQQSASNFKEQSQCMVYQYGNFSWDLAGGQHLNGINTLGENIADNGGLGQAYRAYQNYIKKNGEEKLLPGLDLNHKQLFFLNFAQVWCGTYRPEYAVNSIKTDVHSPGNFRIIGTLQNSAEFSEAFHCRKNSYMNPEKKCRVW

[4] = target: human natriuretic peptide receptor A (NPR-A) (human) (UniProt P16066)
human natriuretic peptide receptor A (NPR-A) (human), sequence (P16066 33-1061): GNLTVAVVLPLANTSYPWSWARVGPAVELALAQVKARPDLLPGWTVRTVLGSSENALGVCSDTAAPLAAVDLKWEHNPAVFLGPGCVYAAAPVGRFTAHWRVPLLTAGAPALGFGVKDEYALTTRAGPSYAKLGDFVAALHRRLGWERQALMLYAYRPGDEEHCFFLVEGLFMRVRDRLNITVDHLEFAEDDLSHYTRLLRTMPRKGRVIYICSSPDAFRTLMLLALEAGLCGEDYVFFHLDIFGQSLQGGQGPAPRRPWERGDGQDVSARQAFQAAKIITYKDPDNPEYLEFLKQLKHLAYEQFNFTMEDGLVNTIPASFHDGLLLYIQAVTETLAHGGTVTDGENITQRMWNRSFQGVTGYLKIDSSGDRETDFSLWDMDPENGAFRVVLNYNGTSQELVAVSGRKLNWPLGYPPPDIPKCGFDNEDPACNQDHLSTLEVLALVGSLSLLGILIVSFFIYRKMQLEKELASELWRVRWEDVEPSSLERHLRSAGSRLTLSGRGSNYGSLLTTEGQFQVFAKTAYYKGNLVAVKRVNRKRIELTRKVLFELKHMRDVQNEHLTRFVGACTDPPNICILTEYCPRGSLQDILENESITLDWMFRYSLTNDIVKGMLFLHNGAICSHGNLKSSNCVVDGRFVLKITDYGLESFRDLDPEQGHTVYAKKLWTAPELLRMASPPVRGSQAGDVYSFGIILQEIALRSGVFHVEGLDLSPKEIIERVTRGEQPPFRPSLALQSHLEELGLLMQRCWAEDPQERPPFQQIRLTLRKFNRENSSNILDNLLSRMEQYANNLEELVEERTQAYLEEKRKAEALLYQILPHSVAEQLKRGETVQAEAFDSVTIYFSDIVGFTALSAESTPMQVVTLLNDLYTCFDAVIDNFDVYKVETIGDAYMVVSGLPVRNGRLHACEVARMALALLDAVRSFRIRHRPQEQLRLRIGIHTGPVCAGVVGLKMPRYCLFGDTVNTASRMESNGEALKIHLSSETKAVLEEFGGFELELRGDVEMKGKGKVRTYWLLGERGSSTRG

human natriuretic peptide receptor B (NPR-B) (human), sequence (P20594 23-1047): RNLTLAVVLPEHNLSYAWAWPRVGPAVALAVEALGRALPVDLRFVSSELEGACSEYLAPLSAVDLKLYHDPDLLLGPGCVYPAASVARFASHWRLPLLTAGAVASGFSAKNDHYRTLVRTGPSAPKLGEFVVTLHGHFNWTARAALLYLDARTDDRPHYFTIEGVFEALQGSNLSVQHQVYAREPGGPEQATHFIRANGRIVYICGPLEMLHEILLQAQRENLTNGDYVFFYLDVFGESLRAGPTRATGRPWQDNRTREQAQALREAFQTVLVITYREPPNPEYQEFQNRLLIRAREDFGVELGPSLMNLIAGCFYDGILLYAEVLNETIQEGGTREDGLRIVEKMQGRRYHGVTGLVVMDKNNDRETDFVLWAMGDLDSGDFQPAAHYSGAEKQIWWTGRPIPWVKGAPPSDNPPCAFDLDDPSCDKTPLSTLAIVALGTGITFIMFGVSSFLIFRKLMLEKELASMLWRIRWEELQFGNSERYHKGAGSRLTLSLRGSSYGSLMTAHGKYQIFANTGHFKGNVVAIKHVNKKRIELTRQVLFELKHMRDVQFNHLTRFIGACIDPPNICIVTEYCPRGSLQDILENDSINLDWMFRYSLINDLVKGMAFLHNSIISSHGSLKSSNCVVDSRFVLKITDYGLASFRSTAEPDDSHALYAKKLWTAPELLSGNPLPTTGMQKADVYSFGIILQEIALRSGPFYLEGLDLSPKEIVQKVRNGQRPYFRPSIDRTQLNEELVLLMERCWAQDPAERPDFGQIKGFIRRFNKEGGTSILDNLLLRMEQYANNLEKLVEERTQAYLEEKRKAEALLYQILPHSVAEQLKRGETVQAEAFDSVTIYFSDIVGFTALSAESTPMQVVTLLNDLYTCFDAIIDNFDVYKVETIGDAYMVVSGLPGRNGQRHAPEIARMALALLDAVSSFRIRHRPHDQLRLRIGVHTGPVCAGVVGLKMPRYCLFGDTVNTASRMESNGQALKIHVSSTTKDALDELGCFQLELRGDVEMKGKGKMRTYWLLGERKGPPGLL

| Binder | % Efficacy [1] [%] | EC50 (nM), NPR-B whole cell cGMP assay [1] [nM] | EC50 Ratio versus CNP22 [1] | Rescue Ratio Average [1] | % of control after 240 min (intact peptide by RP-HPLC after incubation with NEP) [3] [%] | other results |
| --- | --- | --- | --- | --- | --- | --- |
| GLSKGCFGLKLDRIGSMSGLGC [human CNP22] | 100 | 14.7 | 1 | 1 | 0 | EC50 on NPR-B (nM), whole cell cGMP assay [1]: 4.87 nM; Rescue Ratio versus CNP22 [1]: 1; reduction of ability to generate cGMP (NPRB cells) after 30 min with purified IDE [2]: 64%; reduction of ability to generate cGMP (NPRB cells) after 120 min with purified IDE [2]: 99%; reduction of ability to generate cGMP (NPRB cells) after 30 min with purified NEP [3]: 50%; reduction of ability to generate cGMP (NPRB cells) after 120 min with purified NEP [3]: 87% |
| GLSKGCFGLKLDRIGSMSGLGCPSSAAPRPNAPSTSA (ends and bridges not checked; cysteine pairing not given here) [CDNP-S3A4A5] |  |  |  |  |  | % loss in efficacy versus CDNP (NPR-B selective efficacy gain) [1]: 69%; Approximate fold gain in selectivity versus CDNP (NPR-B over NPR-A) [1]: 14.9 fold; Approximate fold selectivity NPR-B versus NPR-A [1]: 43.5 fold |
| EEEEEEHKLRGQEHPNARKYKGANKKGLSKGCFGLKLDRIGSMSGLGC [KB1(E6)] | 109 | 84.5 | 5.75 | 5.6 | 107 |  |
| EEEEEEHGPQGQEHPNARKYKGANKKGLSKGCFGLKLDRIGSMSGLGC [KA1(E6)] | 108 | 144 | 9.79 | 8.2 | 108 |  |
| EEEEEESGGGGSGGGKGANKKGLSKGCFGLKLDRIGSMSGLGC [C4(E6) [BC4]] | 136 | 302 | 20.5 | 18 | 94 |  |
| GLSKGCFGLKLDRIGSMSGLGCPSSRAPRPNAPSTSA (ends and bridges not checked; cysteine pairing not given here) [CDNP-S3A5] |  |  |  |  |  | % efficacy versus CDNP on NPR-A, membrane cGMP assay [4]: 36%; EC50 ratio versus CDNP on NPR-A, membrane cGMP assay [4]: 1.33; % efficacy versus CDNP on NPR-B, membrane cGMP assay [1]: 118%; % loss in efficacy versus CDNP (NPR-B selective efficacy gain) [1]: 82%; Approximate fold gain in selectivity versus CDNP (NPR-B over NPR-A) [1]: 1.23 fold; Approximate fold selectivity NPR-B versus NPR-A [1]: 3.59 fold; EC50 ratio versus CDNP on NPR-B, membrane cGMP assay [1]: 1.08 |
| EEEEEESGGGGSGGGQGANKKGLSKGCFGLKLDRIGSMSGLGC [C8(E6) [BC8]] | 97 | 719 | 48.9 | 52 | 103 |  |
| EEEEEESGGGGSGGGKGANKQGLSKGCFGLKLDRIGSMSGLGC [C6(E6) [BC6]] | 88 | 672 | 45.7 | 63 | 98 |  |
| EEEEEESGGGGSGGGKGANQKGLSKGCFGLKLDRIGSMSGLGC [C7(E6) [BC7]] | 95 | 1010 | 68.6 | 80 | 98 |  |
| EEEEEESGGGGSGGGKGANQQGLSKGCFGLKLDRIGSMSGLGC [C9(E6) [BC9]] | 95 | 1170 | 79.3 | 87 | 98 |  |
| EEEEEESGGGGSGGGQGANQKGLSKGCFGLKLDRIGSMSGLGC [C10(E6) [BC10]] | 156 | 2470 | 168 | 90 | 102 |  |
| GLSKGCFGLKLDRIGSMSGLGCPSLAAPRPNAPSTSA (ends and bridges not checked; cysteine pairing not given here) [CDNP-A4A5] |  |  |  |  |  | % efficacy versus CDNP on NPR-A, membrane cGMP assay [4]: 49%; EC50 ratio versus CDNP on NPR-A, membrane cGMP assay [4]: 0.48; % efficacy versus CDNP on NPR-B, membrane cGMP assay [1]: 85%; % loss in efficacy versus CDNP (NPR-B selective efficacy gain) [1]: 36%; Approximate fold gain in selectivity versus CDNP (NPR-B over NPR-A) [1]: 0.98 fold; Approximate fold selectivity NPR-B versus NPR-A [1]: 2.86 fold; EC50 ratio versus CDNP on NPR-B, membrane cGMP assay [1]: 0.49 |
| EEEEEESGGGGSGGGQGANKQGLSKGCFGLKLDRIGSMSGLGC [C11(E6) [BC11]] | 95 | 888 | 60.4 | 120 | 102 |  |
| EEEEEESGGGGSGGGGSGGGGGLSKGCFGLKLDRIGSMSGLGC [C1(E6) [BC1]] | 97 | 1740 | 118 | 122 | 99 |  |
| EEEEEESGGGGSGGGQGANQQGLSKGCFGLKLDRIGSMSGLGC [C5(E6) [BC5]] | 96 | 2360 | 161 | 138 | 100 |  |
| GLSKGCFGLKLDRIGSMSGLGCGGGGSGGGGSGGGGDDDDDD [CNP-14AAlinker-D6 [C4]] | 156 | 2140 | 146 | 545 | 75 |  |
| SLRRSSCFGGRMDRIGAQSGLGCNSFRY [atrial natriuretic peptide (ANP)] |  |  |  |  |  | EC50 on NPR-A (nM), whole cell cGMP assay [4]: 1.4 nM |
| GLSKGCFGLKLDRIGSMSGLGCPSSADPRPNAPSTSA (ends and bridges not checked; cysteine pairing not given here) [CDNP-S3A4] |  |  |  |  |  | % loss in efficacy versus CDNP (NPR-B selective efficacy gain) [1]: 27%; Approximate fold gain in selectivity versus CDNP (NPR-B over NPR-A) [1]: 28.5 fold; Approximate fold selectivity NPR-B versus NPR-A [1]: 83.2 fold |
| GLSKGCFGLKLDRIGSMSGLGCPSLRAPRPNAPSTSA (ends and bridges not checked; cysteine pairing not given here) [CDNP-A5] |  |  |  |  |  | % efficacy versus CDNP on NPR-A, membrane cGMP assay [4]: 114%; EC50 ratio versus CDNP on NPR-A, membrane cGMP assay [4]: 1.33; % efficacy versus CDNP on NPR-B, membrane cGMP assay [1]: 87%; % loss in efficacy versus CDNP (NPR-B selective efficacy gain) [1]: -27%; Approximate fold gain in selectivity versus CDNP (NPR-B over NPR-A) [1]: 5.54 fold; Approximate fold selectivity NPR-B versus NPR-A [1]: 16.2 fold; EC50 ratio versus CDNP on NPR-B, membrane cGMP assay [1]: 0.24 |
| DDDDDDGGGGSGGGGSGGGGGLSKGCFGLKLDRIGSMSGLGC [D6-14AAlinker-CNP [C3]] |  |  |  |  | 101 |  |
| GLSKGCFGLKLDRIGSMSGLGCPSLADPRPNAPSTSA (ends and bridges not checked; cysteine pairing not given here) [CDNP-A4] |  |  |  |  |  | % efficacy versus CDNP on NPR-A, membrane cGMP assay [4]: 90%; EC50 ratio versus CDNP on NPR-A, membrane cGMP assay [4]: 41.1; % efficacy versus CDNP on NPR-B, membrane cGMP assay [1]: 92%; % loss in efficacy versus CDNP (NPR-B selective efficacy gain) [1]: 2%; Approximate fold gain in selectivity versus CDNP (NPR-B over NPR-A) [1]: 17.8 fold; Approximate fold selectivity NPR-B versus NPR-A [1]: 52 fold; EC50 ratio versus CDNP on NPR-B, membrane cGMP assay [1]: 2.31 |
